{
  "source": "paper PMC6719446",
  "about": "(The Journal of Cell Biology, 2019)",
  "binders": {"B1": {"name": "3xFlag-BIK (natural protein, UniProt Q13323 1-160, looked up)", "chain": "MSEVRPLSRDILMETLLYEQLLEPPTMEVLGMTDSEEDLDPMEDFDSLECMEGSDALALRLACIGDEMDVSLRAPRLAQLSEVAMHSLGLAFIYDQTEDIRDVLRSFMDGFTTLKENIMRFWRSPNPGSWVSCEQVLLALLLLLALLLPLLSGGLHLLLK"}},
  "target": "T1, Purified ASB11 bound on anti-Myc beads (human (ASB11 cDNA amplified from 293T …, UniProt Q8WXH4 1-323))",
  "T1 sequence (looked up)": "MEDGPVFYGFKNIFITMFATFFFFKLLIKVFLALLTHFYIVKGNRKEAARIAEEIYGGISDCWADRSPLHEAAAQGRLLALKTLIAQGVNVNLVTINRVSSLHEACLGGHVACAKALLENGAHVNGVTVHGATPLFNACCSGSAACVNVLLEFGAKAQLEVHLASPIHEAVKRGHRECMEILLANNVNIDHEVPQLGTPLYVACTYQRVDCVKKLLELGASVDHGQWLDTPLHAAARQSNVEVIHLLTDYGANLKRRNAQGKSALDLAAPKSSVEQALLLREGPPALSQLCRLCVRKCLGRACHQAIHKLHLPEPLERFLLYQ",
  "experiment": "pull-down",
  "data": [
    {"binder": "B1", "values": [
      {"measurement": "binding result", "result": "binds"}
    ]}
  ]
}
